Source: US20080138349A1

Target: FcγRIIB-Fc fusion protein, soluble dimeric: extracellular domain of FcγRIIB fused to the hinge-CH2-CH3 domain of human IgG2 (human) (UniProt P31994)
Assay: ELISA

Chain of FcγRIIB-Fc fusion protein, soluble dimeric: extracellular domain of FcγRIIB fused to the hinge-CH2-CH3 domain of human IgG2 (human) (P31994 43-217 limits assumed): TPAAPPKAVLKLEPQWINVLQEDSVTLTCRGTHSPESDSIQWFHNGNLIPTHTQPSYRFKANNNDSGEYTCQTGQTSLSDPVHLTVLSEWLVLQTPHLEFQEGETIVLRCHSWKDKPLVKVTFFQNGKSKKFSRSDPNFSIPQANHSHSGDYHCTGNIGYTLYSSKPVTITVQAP

ELISA, OD [OD]	Substance
0.4	ch4-4-20 antibody, wild-type Fc (chimeric anti-fluorescein, IgG1)

Target: FcγRIIIA (UniProt P08637)
Assay: ELISA

Chain of FcγRIIIA (P08637 17-208 limits assumed): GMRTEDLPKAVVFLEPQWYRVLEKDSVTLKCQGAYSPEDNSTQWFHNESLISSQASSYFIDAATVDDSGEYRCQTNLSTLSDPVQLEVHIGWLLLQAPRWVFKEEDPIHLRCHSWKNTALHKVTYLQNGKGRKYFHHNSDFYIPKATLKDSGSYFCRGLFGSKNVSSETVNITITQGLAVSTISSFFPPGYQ

ELISA IIIA binding vs wt	ELISA, OD [OD]	Substance
1	0.5	ch4-4-20 antibody, wild-type Fc (chimeric anti-fluorescein, IgG1)

Target: FcγRIIB-Fc fusion protein, soluble dimeric: extracellular domain of FcγRIIB fused to the hinge-CH2-CH3 domain of human IgG2 (human) (UniProt P31994)
Assay: BIAcore

Kd [nM]	Substance
94	ch4-4-20 antibody, wild-type Fc (chimeric anti-fluorescein, IgG1)

Target: soluble monomeric FcγRIIIA, the extracellular region of FcγRIIIA joined to the linker-AVITAG sequence (UniProt P08637)
Sequence (P08637 17-208 limits assumed): as above
Assay: BIAcore

Kd [nM]	Substance
198	ch4-4-20 antibody, wild-type Fc (chimeric anti-fluorescein, IgG1)

Target: FcγRIIB (CD32B), soluble dimeric Fc fusion (human) (UniProt P31994)
Sequence (P31994 43-217): as the sequence (P31994 43-217 limits assumed) above
Assay: Biacore SPR

Koff WT/Koff mutant	Substance
1.18	Immunoglobulin with variant Fc region Y300L (antibody)
0.32	Immunoglobulin with variant Fc region F243L R292P Y300L (antibody)
2.58	Immunoglobulin with variant Fc region P396L (antibody)
1.07	Immunoglobulin with variant Fc region R292P F243L P396L Y300L (antibody)
0.87	Immunoglobulin with variant Fc region R255L P396L D270E (antibody)
0.39	Immunoglobulin with variant Fc region D270E (antibody)

Further lines, the substance ahead of its results:

Substance	Koff WT/Koff mutant
Immunoglobulin with variant Fc region R292P V284M K370N (antibody)	0.37
Immunoglobulin with variant Fc region R292P V305I P396L (antibody)	0.92
Immunoglobulin with variant Fc region P247L N421K D270E F243L (antibody)	0.32
Immunoglobulin with variant Fc region P396L D270E (antibody)	0.89
Immunoglobulin with variant Fc region G316D R416G D270E P396L (antibody)	1.07
Immunoglobulin with variant Fc region P396L F243L (antibody)	2.22

Target: FcγRIIIA 158F (CD16A F158), soluble monomer (human) (UniProt P08637)
Sequence (P08637 17-208): as the sequence (P08637 17-208 limits assumed) above
Assay: Biacore SPR

Koff WT/Koff mutant	Substance
2.3	Immunoglobulin with variant Fc region F243L R292P Y300L (antibody)
1.73	Immunoglobulin with variant Fc region P396L (antibody)
5.62	Immunoglobulin with variant Fc region R292P F243L P396L Y300L (antibody)
1.65	Immunoglobulin with variant Fc region R255L P396L D270E (antibody)
1.48	Immunoglobulin with variant Fc region D270E (antibody)

More lines, now with the values behind:

Substance	Koff WT/Koff mutant
Immunoglobulin with variant Fc region R292P V284M K370N (antibody)	1.37
Immunoglobulin with variant Fc region R292P V305I P396L (antibody)	1.9
Immunoglobulin with variant Fc region P247L N421K D270E F243L (antibody)	3.45
Immunoglobulin with variant Fc region P396L D270E (antibody)	1.65
Immunoglobulin with variant Fc region G316D R416G D270E P396L (antibody)	0.94
Immunoglobulin with variant Fc region P396L F243L (antibody)	1.6

Target: FcγRIIIA 158V (CD16A V158), soluble monomer (human) (UniProt P08637)
Sequence (P08637 17-208 F176V): as the sequence (P08637 17-208 limits assumed) above, with F160V counted along it
Assay: Biacore SPR

Koff WT/Koff mutant	Substance
1.01	Immunoglobulin with variant Fc region Y300L (antibody)
6.69	Immunoglobulin with variant Fc region F243L R292P Y300L (antibody)
1.27	Immunoglobulin with variant Fc region P396L (antibody)
10.1	Immunoglobulin with variant Fc region R292P F243L P396L Y300L (antibody)
1.34	Immunoglobulin with variant Fc region R255L P396L D270E (antibody)
1.25	Immunoglobulin with variant Fc region D270E (antibody)

Further lines, the substance ahead of its results:

Substance	Koff WT/Koff mutant
Immunoglobulin with variant Fc region R292P V284M K370N (antibody)	1.14
Immunoglobulin with variant Fc region R292P V305I P396L (antibody)	1.85
Immunoglobulin with variant Fc region P247L N421K D270E F243L (antibody)	2.3
Immunoglobulin with variant Fc region P396L D270E (antibody)	1.38
Immunoglobulin with variant Fc region G316D R416G D270E P396L (antibody)	1.22
Immunoglobulin with variant Fc region P396L F243L (antibody)	1.49

Target: FcγRIIB-Fc fusion protein, soluble dimeric: extracellular domain of FcγRIIB fused to the hinge-CH2-CH3 domain of human IgG2 (human) (UniProt P31994)
Assay: BIAcore, antibody captured on BSA-FITC

Kd [nM]	Substance
61.4	ch4-4-20 antibody, wild-type Fc (chimeric anti-fluorescein, IgG1)

Target: soluble monomeric FcγRIIIA, the extracellular region of FcγRIIIA joined to the linker-AVITAG sequence (UniProt P08637)
Assay: BIAcore, antibody captured on BSA-FITC

Kd [nM]	Substance
319	ch4-4-20 antibody, wild-type Fc (chimeric anti-fluorescein, IgG1)

Target: FcγRIIIA 158F (CD16A F158), soluble monomer (human) (UniProt P08637)
Assay: Biacore SPR; value on CD16A over value on CD32B

Ratio of Affinities CD16A F158/CD32B	Substance
0.99	Immunoglobulin with variant Fc region Y300L (antibody)
7.19	Immunoglobulin with variant Fc region F243L R292P Y300L (antibody)
0.67	Immunoglobulin with variant Fc region P396L (antibody)
5.25	Immunoglobulin with variant Fc region R292P F243L P396L Y300L (antibody)
1.9	Immunoglobulin with variant Fc region R255L P396L D270E (antibody)
3.79	Immunoglobulin with variant Fc region D270E (antibody)

The remaining lines, values behind:

Substance	Ratio of Affinities CD16A F158/CD32B
Immunoglobulin with variant Fc region R292P V284M K370N (antibody)	3.7
Immunoglobulin with variant Fc region R292P V305I P396L (antibody)	2.07
Immunoglobulin with variant Fc region P247L N421K D270E F243L (antibody)	10.8
Immunoglobulin with variant Fc region P396L D270E (antibody)	1.85
Immunoglobulin with variant Fc region G316D R416G D270E P396L (antibody)	0.88
Immunoglobulin with variant Fc region P396L F243L (antibody)	0.72

Target: FcγRIIIA 158V (CD16A V158), soluble monomer (human) (UniProt P08637)
Assay: Biacore SPR; value on CD16A over value on CD32B

Ratio of Affinities CD16A V158/CD32B	Substance
20.9	Immunoglobulin with variant Fc region F243L R292P Y300L (antibody)
0.49	Immunoglobulin with variant Fc region P396L (antibody)
9.4	Immunoglobulin with variant Fc region R292P F243L P396L Y300L (antibody)
1.54	Immunoglobulin with variant Fc region R255L P396L D270E (antibody)
3.21	Immunoglobulin with variant Fc region D270E (antibody)

Continued, substance first:

Substance	Ratio of Affinities CD16A V158/CD32B
Immunoglobulin with variant Fc region R292P V284M K370N (antibody)	3.1
Immunoglobulin with variant Fc region R292P V305I P396L (antibody)	2.01
Immunoglobulin with variant Fc region P247L N421K D270E F243L (antibody)	7.19
Immunoglobulin with variant Fc region P396L D270E (antibody)	1.55
Immunoglobulin with variant Fc region G316D R416G D270E P396L (antibody)	1.14
Immunoglobulin with variant Fc region P396L F243L (antibody)	0.67

Target: FcγRIIA 131H (CD32A H131), soluble dimeric Fc fusion (human) (UniProt P12318)
Sequence (P12318 34-217): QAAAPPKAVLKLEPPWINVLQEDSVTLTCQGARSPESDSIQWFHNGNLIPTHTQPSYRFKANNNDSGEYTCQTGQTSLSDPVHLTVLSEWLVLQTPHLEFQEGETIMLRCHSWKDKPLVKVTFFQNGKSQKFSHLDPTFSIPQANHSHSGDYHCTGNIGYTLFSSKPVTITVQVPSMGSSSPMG
Assay: binding to human FcRs; method not given

fold change relative to wild-type affinity [fold]	Substance
1.9	Immunoglobulin with variant Fc region Y300L (antibody)
0	Immunoglobulin with variant Fc region F243L R292P Y300L (antibody)
0.6	Immunoglobulin with variant Fc region P396L (antibody)

Target: FcγRIIB (CD32B), soluble dimeric Fc fusion (human) (UniProt P31994)
Assay: binding to human FcRs; method not given

fold change relative to wild-type affinity [fold]	Substance
0.2	Immunoglobulin with variant Fc region Y300L (antibody)
-0.7	Immunoglobulin with variant Fc region F243L R292P Y300L (antibody)
1.6	Immunoglobulin with variant Fc region P396L (antibody)

Target: FcγRIIIA 158F (CD16A F158), soluble monomer (human) (UniProt P08637)
Assay: binding to human FcRs; method not given

fold change relative to wild-type affinity [fold]	Substance
0.2	Immunoglobulin with variant Fc region Y300L (antibody)
3.6	Immunoglobulin with variant Fc region F243L R292P Y300L (antibody)
0.7	Immunoglobulin with variant Fc region P396L (antibody)

Target: FcγRIIIA 158V (CD16A V158), soluble monomer (human) (UniProt P08637)
Assay: binding to human FcRs; method not given

fold change relative to wild-type affinity [fold]	Substance
0	Immunoglobulin with variant Fc region Y300L (antibody)
6.4	Immunoglobulin with variant Fc region F243L R292P Y300L (antibody)
0.3	Immunoglobulin with variant Fc region P396L (antibody)
